The series concerns the target E. coli DNA polymerase I (Escherichia coli, UniProt P00582 P00582:1-928). Nature of the series: EMSA; Kd stated as determined from binding curves but value not given; RNA 50 nM, pol 0-80 nM, 10 mM KCl, 1 mM DTT, 5% glycerol, pH 7.0. The conditions noted are these: tags: New England Biolabs; label: body-labeled 32P. As for the experimental part: A mixture (5 μL) containing bodily ³²P-labeled RNA 69-mer (50 nM, final), DNA polymerase I (0, 20, 40, 60, or 80 nM), and binding buffer (final: 10 mM KCl, 1 mM DTT, 5% glycerol, pH 7.0) was incubated at room temperature for 30 minutes and then placed at 4° C. overnight. The binding solutions were mixed with the gel loading dye (final: 10 mM KCl, 1 mM DTT, 5% glycerol, 0.001% xylene blue w/v) and then loaded on 10% non-denaturing polyacrylamide gel in the running buffer (5 mM Tris-HCl, 10 mM EDTA, and pH 7.5). The gel was pre-run for 1 hour at 250 volts. After loading the samples, the gel was run with a constant voltage (250 volts) for one hour; all operations were performed in 4° C. cold room. The gel was fixed with 7% acetic acid (in methanol), dried, and scanned. The radioactive bands were quantified by phosphorimager using image quantifying software. […] Dissociation constant was determined from the binding curves.
A mixture (5 μL) containing bodily ³²P-labeled RNA 69-mer (50 nM, final), DNA polymerase I (0, 20, 40, 60, or 80 nM), and binding buffer (final: 10 mM KCl, 1 mM DTT, 5% glycerol, pH 7.0) was incubated at room temperature for 30 minutes and then placed at 4° C. overnight. […] The radioactive bands were quantified by phosphorimager using image quantifying software. […] Dissociation constant was determined from the binding curves.

Here are results for one molecule from patent publication US20160281093, “METHODS AND COMPOSITIONS FOR INTERFERENCE WITH DNA POLYMERASE AND DNA SYNTHESIS” (GEORGIA STATE UNIVERSITY RESEARCH FOUNDATION, INC., published 2016).

Chain of E. coli DNA polymerase I (P00582 whole entry, one chain of several): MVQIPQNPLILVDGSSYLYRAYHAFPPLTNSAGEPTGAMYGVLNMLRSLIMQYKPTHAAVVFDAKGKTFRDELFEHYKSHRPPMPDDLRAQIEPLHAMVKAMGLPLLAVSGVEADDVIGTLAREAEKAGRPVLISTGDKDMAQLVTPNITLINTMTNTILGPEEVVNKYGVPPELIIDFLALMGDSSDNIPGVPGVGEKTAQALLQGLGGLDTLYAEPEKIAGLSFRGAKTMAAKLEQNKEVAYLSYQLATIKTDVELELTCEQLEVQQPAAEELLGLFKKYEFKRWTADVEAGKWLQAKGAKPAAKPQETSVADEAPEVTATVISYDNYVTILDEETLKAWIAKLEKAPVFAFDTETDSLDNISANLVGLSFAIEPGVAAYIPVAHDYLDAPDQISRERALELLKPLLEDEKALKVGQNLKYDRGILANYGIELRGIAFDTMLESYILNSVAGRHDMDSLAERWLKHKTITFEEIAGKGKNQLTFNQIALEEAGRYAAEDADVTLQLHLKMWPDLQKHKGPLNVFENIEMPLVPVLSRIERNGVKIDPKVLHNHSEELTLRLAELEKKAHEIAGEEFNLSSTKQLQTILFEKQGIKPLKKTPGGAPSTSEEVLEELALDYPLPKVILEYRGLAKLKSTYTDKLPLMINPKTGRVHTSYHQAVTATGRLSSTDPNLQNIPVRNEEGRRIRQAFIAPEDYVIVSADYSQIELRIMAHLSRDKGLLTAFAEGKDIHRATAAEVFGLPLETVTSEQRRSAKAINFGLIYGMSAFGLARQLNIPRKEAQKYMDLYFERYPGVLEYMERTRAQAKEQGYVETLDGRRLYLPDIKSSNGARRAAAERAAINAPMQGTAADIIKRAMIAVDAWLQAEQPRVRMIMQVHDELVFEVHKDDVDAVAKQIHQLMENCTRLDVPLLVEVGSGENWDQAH

B1: RNA-69mer (ssRNA)
RNA: GGGAGCCCUGUCACCGGAUGUGCUUUCCGGUCUGAUGAGUCCGUGAGGACAAAACAGGGCUCCCGAAUU
For the molecule B1, the binding result is “binds”.
